Results on 1 molecule are retold here after patent US20050025760A1 (KEIO UNIVERSITY, published 2005).

This test deals with T1, human Dsg3 in human skin or mucosa (human, UniProt P32926 50-999).
T1 construct: whole, on cells; also called human tissues
T1 sequence (looked up): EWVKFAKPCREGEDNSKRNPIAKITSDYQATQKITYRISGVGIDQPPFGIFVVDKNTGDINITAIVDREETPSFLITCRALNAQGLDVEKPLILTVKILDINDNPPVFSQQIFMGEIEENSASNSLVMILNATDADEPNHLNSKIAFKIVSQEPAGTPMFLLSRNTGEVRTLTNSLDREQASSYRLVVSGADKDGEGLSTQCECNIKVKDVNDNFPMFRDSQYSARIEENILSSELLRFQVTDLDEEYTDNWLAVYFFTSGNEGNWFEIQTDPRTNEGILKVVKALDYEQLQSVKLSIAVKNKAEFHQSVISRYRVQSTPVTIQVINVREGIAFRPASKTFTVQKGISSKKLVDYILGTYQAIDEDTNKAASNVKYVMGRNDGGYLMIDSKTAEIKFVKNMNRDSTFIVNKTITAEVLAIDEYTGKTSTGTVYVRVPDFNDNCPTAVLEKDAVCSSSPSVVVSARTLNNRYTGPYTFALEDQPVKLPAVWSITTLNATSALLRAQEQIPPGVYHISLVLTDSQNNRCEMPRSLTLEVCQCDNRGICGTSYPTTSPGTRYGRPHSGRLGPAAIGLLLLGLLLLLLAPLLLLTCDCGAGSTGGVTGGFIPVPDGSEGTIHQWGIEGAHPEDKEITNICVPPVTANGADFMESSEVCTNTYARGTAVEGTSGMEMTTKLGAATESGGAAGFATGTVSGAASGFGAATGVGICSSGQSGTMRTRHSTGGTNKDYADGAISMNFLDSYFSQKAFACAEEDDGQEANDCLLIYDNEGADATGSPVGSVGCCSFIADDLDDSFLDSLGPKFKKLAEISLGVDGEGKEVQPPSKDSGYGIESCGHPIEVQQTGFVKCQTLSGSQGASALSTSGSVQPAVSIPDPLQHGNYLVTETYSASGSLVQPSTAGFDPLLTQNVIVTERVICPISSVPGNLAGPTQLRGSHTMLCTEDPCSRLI
In words: indirect immunofluorescence on human skin sections. The protocol:
A-5 (Indirect Immunofluorescence) C57B1/6J mouse hard palate, liver and human skin were embedded with OCT compound (SAKURA, USA), then froze and sectioned into 5 μm thickness, and constructed a substrate. After each of hybridoma culture supernatants were reacted for 1 hour at room temperature, they were washed with PBS (3 times), and reacted with ×100 diluted FITC labeled goat anti-mouse IgG (DAKO A/S, Glostrup, Denmark) for 1 hour at room temperature, they were washed with PBS (3 times), and microscopic examination was conducted using a fluorescence microscope.

B1: anti-Dsg3 monoclonal antibody AK23 (antibody, mouse IgG1, V domains shown)
VH: QVQLQQSGTELVKPGASVKLSCKSSGYTFTSYWINWVKQRPGQGLEWIGNINPSNGGINYNEKFKSKATLTVDKSSSTAYMQLKSLTSEDSAVYYCARGGYDGYPWGQGTTVTVS
VL: DIQMTQSPKFLLVSAGDRVTITCKASQSVSYDVAWYQQKPGQSPKLLISYASNRYTGVPDRFTGSGYGSDFTFTISTVQTEDLAVYFCQQDYSSPWTFGGGTKLELKR
notes: Mouse IgG1 kappa hybridoma antibody
For B1, the binding result is reported as “binds”.
